Experimental data published in patent US20200181274A1.

Target: CD123 (interleukin-3 receptor alpha) on CD123-positive human AML cells (KG-1a, Kasumi-3, AML patient blasts) (human) (UniProt P26951)
Test: cell-based or functional assay

Sequence of UniProt P26951 (P26951 19-378): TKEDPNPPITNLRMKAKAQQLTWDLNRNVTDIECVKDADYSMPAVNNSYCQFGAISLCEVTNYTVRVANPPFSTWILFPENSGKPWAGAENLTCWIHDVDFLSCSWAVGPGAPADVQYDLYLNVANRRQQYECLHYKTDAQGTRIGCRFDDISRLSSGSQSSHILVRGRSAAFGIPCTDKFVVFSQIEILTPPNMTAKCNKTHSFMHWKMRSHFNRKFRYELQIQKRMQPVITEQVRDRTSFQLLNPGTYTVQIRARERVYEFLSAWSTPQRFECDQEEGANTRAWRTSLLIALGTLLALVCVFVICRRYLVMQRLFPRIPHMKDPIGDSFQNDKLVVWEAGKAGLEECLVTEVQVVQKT

“XmAb14045 bispecific anti-CD123 x anti-CD3 Fab-scFv-Fc antibody (bispecific antibody)” was tested, and the T cell-dependent cytotoxicity (RTCC) against CD123+ KG-1a cells with human PBMC as effectors, EC50 was 0.28 ng/mL, the T cell-dependent cytotoxicity (RTCC) against CD123+ Kasumi-3 cells with human PBMC as effectors, EC50 was 0.01 ng/mL and the apoptosis (annexin-V positivity) of CD123-expressing KG-1a cells with AML subject-derived PBMC, 48 hours was 50%. For the same substance, the depletion of putative blast cell population in PBMC of 6 AML subjects, 48 hours was 20 to 90% and the reduction of putative leukemic blast number in AML PBMC, 9 or 90 ng/mL, 48 hours was 80%.
